The target in assay [1] is T1, Corynebacterium callunae starch phosphorylase (CcGlgP) (Corynebacterium callunae, UniProt Q8KQ56). The conditions noted are these: 50 mM triethanolamine, pH 7.0; dimer-interface P- and CAP-sites, not the catalytic site; stabilisation against subunit dissociation.
The target in assay [2] is Corynebacterium callunae starch phosphorylase K31A (Corynebacterium callunae).
Assay [3] deals with Corynebacterium callunae starch phosphorylase, wild-type (Corynebacterium callunae).
Assay [4] shares this target. The source holds these as a separate data set.
Assay [5] shares this target. This is another data set of the same source.
Assay [6] deals with T1, Corynebacterium callunae starch phosphorylase (CcGlgP). Put plainly: colorimetric PLP quantitation of the isolated enzyme. Format: binding. The arrangement: full-length, N-terminal RGSHHHHHHGSA tag kept, from pQE 30-GlgP in E. coli JM109; homodimer (small tetramer fraction caused by tag); PLP enzyme. The conditions noted are these: covalent (Schiff base with active-site Lys); as isolated. From the text: (§1) colorimetric PLP quantitation of the isolated enzyme on Corynebacterium callunae starch phosphorylase (CcGlgP)

The target in assay [7] is T2, Corynebacterium callunae starch phosphorylase (CcGlgP) (Corynebacterium callunae, UniProt Q8KQ56, K32A).
T2 construct: full-length, N-terminal RGSHHHHHHGSA tag kept, from pQE 30-GlgP in E. coli JM109; homodimer (small tetramer fraction caused by tag); PLP enzyme
T2 sequence (Q8KQ56 entry or part of it K32A): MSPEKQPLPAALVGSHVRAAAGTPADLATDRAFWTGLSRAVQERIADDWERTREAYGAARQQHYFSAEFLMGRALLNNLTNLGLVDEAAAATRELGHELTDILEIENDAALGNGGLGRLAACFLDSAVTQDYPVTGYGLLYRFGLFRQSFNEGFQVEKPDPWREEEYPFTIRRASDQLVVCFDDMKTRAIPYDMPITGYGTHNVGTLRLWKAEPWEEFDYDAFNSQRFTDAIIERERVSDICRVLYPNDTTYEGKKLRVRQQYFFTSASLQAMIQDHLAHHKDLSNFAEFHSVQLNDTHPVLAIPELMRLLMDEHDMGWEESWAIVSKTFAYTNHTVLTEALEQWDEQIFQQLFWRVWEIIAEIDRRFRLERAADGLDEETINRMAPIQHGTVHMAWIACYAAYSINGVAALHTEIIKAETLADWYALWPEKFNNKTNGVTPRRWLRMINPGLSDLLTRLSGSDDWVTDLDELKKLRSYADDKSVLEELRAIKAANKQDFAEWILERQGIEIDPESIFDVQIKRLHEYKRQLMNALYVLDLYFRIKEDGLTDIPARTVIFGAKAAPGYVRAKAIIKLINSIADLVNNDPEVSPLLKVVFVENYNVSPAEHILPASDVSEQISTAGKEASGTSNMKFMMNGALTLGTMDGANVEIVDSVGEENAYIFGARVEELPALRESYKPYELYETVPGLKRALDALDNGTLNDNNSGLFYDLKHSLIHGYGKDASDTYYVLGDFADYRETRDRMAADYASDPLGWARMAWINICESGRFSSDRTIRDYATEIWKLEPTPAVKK
The description is as above. Format: binding. The conditions noted are these: covalent (Schiff base with active-site Lys); as isolated.
Excerpt: as §1

Assay [8] deals with T3, Corynebacterium callunae starch phosphorylase (CcGlgP) (Corynebacterium callunae, UniProt Q8KQ56, R142A).
T3 construct: full-length, N-terminal RGSHHHHHHGSA tag kept, from pQE 30-GlgP in E. coli JM109; homodimer (small tetramer fraction caused by tag); PLP enzyme
T3 sequence (Q8KQ56 entry or part of it R142A): as the sequence (Q8KQ56 entry or part of it K32A) above, with A32K, R142A counted along it
The assay is described as above. Format: binding. The conditions noted are these: covalent (Schiff base with active-site Lys); as isolated.
Excerpt: as §1

In assay [9] the target is T4, Corynebacterium callunae starch phosphorylase (CcGlgP) (Corynebacterium callunae, UniProt Q8KQ56, T29A).
T4 construct: full-length, N-terminal RGSHHHHHHGSA tag kept, from pQE 30-GlgP in E. coli JM109; homodimer (small tetramer fraction caused by tag); PLP enzyme
T4 sequence (Q8KQ56 entry or part of it T29A): as the sequence (Q8KQ56 entry or part of it K32A) above, with T29A, A32K counted along it
The assay is described as above. It counts as binding. The conditions noted are these: covalent (Schiff base with active-site Lys); as isolated.
Excerpt: as §1

Assay [10] concerns the target T5, Corynebacterium callunae starch phosphorylase (CcGlgP) (Corynebacterium callunae, UniProt Q8KQ56, S175A).
T5 construct: full-length, N-terminal RGSHHHHHHGSA tag kept, from pQE 30-GlgP in E. coli JM109; homodimer (small tetramer fraction caused by tag); PLP enzyme
The assay is described as above. The following applies: covalent (Schiff base with active-site Lys); as isolated. Format: binding.
Excerpt: as §1

In assay [11] the target is Corynebacterium callunae starch phosphorylase T28A (Corynebacterium callunae).
Assay [12] addresses Corynebacterium callunae starch phosphorylase R141A (Corynebacterium callunae).
Assay [13] has the same target. The experiment in a line: SEC; R141A as isolated, prior to imidazole, 0.4 mg/ml; HiLoad 16/60 Superdex 200 prep grade, 50 mM potassium phosphate buffer pH 7.0, 0.15 M NaCl, 1 ml/min; calibrated with Bio-Rad Gel Filtration Standard. (Size exclusion chromatography separates by hydrodynamic size, large species first.)
Assay [14] concerns the target T1, Corynebacterium callunae starch phosphorylase (CcGlgP). The experiment in a line: initial rate of glucan synthesis, Pi release. It counts as biochemical. The arrangement: full-length, N-terminal RGSHHHHHHGSA tag kept, from pQE 30-GlgP in E. coli JM109; homodimer (small tetramer fraction caused by tag); PLP enzyme. The conditions noted are these: 50 mM G1P, 20 g/l starch, pH 7.0, 30 °C; apparent activation through dimer stabilisation, not allosteric.

Assay [15] deals with Corynebacterium callunae starch phosphorylase S174A (Corynebacterium callunae).
The target is the same in assay [16]. The source holds these as a separate data set.

“And” between values parts separate entries of the source, which are not always exact repeats. Identical values can stand only once.

T1 sequence (Q8KQ56 entry or part of it): as the sequence (Q8KQ56 entry or part of it K32A) above, with A32K counted along it
T5 sequence (Q8KQ56 entry or part of it S175A): as the sequence (Q8KQ56 entry or part of it K32A) above, with A32K, S175A counted along it

For the molecule `O=P(O)(O)O` [orthophosphate], the “inactivation at 45°C / 10.0 mM Pi” value in assay [1] is 280 min.

In [2], “Corynebacterium callunae starch phosphorylase K31A (enzyme)” registered a half-life time (t1/2) of enzyme activity at 45°C, pH 7.0; no Pi, 10.0 mM Pi, 100 mM Pi (5.3, 1.7 × 10^2, 3.5 × 10^3 min) of 3500 min and a half-life time (t1/2) of enzyme activity in 0.4 M imidazole at 30°C; no Pi, 5.0 mM Pi (10, 25 min) of 25 min.

As for “Corynebacterium callunae starch phosphorylase, wild-type (enzyme)”, the stimulation of the initial rate of glucan synthesis (Vs) by sulphate (5.0 - 40 mM (NH4)2SO4), 50 mM G1P, relative to the control lacking sulphate; maximum at around 10 mM sulphate in assay [3] stood at 3 fold. In assay [4], this molecule had a half-life time (t1/2) of enzyme activity at 45°C, pH 7.0; no Pi, 10.0 mM Pi, 100 mM Pi (2.6, 2.8 × 10^2, 3.5 × 10^3 min) of 3500 min and a half-life time (t1/2) of enzyme activity in 0.4 M imidazole at 30°C; no Pi, 5.0 mM Pi (22, 160 min) of 160 min. The apparent activation of Vs by 10 mM sulphate at 2.5 nM protein, 50 mM G1P in assay [5] worked out at 2.4 fold.

On to `Cc1ncc(COP(=O)(O)O)c(C=O)c1O` [pyridoxal 5'-phosphate], for which the “PLP / [μM/μM protein]” value in [6] amounted to 0.7 μM/μM protein; in [7], 0.6 μM/μM protein; in assay [8], 0.7 μM/μM protein; in assay [9], 0.6 μM/μM protein; in [10], 0.7 μM/μM protein.

In [11], “Corynebacterium callunae starch phosphorylase T28A (enzyme)” yielded a half-life time (t1/2) of enzyme activity at 45°C, pH 7.0; no Pi, 10.0 mM Pi, 100 mM Pi (0.8, 2.2, 3.3 × 10^2 min) of 330 min and a half-life time (t1/2) of enzyme activity in 0.4 M imidazole at 30°C; no Pi, 5.0 mM Pi (1.9, 5.6 min) of 5.6 min.

With “Corynebacterium callunae starch phosphorylase R141A (enzyme)”, in assay [12], the half-life time (t1/2) of enzyme activity at 45°C, pH 7.0; no Pi, 10.0 mM Pi, 100 mM Pi (2.9, 7.5, 1.4 × 10^3 min) turned out to be 1400 min and the half-life time (t1/2) of enzyme activity in 0.4 M imidazole at 30°C; no Pi, 5.0 mM Pi (6.4, 27 min) amounted to 27 min. For the same molecule, in [13], the stoichiometry N (commonly a count of units in the complex or per binding partner) is 2 and 4.

As for `O=S(=O)(O)O` [sulphate], the “maximum stimulation of Vs at around 10 mM sulphate” value in assay [14] is given as ~ 3 fold.

In assay [15], “Corynebacterium callunae starch phosphorylase S174A (enzyme)” showed a half-life time (t1/2) of enzyme activity at 45°C, pH 7.0; no Pi, 10.0 mM Pi, 100 mM Pi (2.8, 33, 9.9 × 10^2 min) of 990 min and a half-life time (t1/2) of enzyme activity in 0.4 M imidazole at 30°C; no Pi, 5.0 mM Pi (14, 58 min) of 58 min. In [16], the enhancement of Vs by 10 mM sulphate, 50 mM G1P; protein 2.5 nM (~5-fold) and 50 nM (1.7-fold) was 5 fold.

(Values after paper PMC2837607, “Orthophosphate binding at the dimer interface of Corynebacterium callunae starch phosphorylase: mutational analysis of its role for activity and stability of the enzyme” (BMC Biochemistry, 2010).)
